Test results reported in patent publication US20200299367A1 (ARIZONA BOARD OF REGENTS ON BEHALF OF ARIZONA STATE …, published 2020).

Each binder was assayed against T1, bovine serum albumin (bovine, UniProt P02769 25-607) (assay: AFM single clone screening, phage on mica coated with antigen).
T1 construct: also called BSA
T1 sequence (P02769 25-607 limits assumed): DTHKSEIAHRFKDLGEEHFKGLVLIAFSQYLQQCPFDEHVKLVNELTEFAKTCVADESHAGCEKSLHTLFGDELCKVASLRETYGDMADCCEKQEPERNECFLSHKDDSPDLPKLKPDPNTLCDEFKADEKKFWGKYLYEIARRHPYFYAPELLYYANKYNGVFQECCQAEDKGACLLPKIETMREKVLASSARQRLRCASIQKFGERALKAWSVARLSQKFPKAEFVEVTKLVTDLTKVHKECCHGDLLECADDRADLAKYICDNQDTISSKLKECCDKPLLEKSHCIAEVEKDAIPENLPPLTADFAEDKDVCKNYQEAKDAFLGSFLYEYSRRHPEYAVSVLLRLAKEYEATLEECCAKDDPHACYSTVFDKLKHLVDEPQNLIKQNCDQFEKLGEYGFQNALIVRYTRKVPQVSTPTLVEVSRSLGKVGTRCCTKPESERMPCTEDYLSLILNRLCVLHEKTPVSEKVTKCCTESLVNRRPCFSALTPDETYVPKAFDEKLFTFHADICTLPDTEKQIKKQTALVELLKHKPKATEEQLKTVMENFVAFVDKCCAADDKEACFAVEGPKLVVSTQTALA

Row | binding result | Binder
1 | no binding | G12C scFv (scFv, also called G12 (clone before frame-shift repair)) scFv: RVQLVESGAEVTKPGASVRVSCKASGYTFSRYDINWVRQASGQGLEWMGWINPNSGNTGYAQKFQGRVTMTRNISITTAYMELSSLRSEDTAVYYCARGLPEFDPWGQGTLVTVSSGGGGSGGGGSGGGGSHVILTQDPAVSVALGQTVRITCQGDSLRSYYASWYQQKPGQAPVLVIYGKNNRPSGIPDRFSGSSSGNTASLTITGAQAEDEADFYCNSRDSSGTHLEVFGGGTKVTVLGAAAEQKLISEEDLNGAA
2 | no binding | D4G scFv (scFv, also called D4 (clone before frame-shift repair)) scFv: QVQLVASGGDLIQPGGSLRLSCAASGFTFNNYWMTWVRQAPGKGLEWVANIKQDGGEKYYVDSVKGRFTISRDNAKTSLYLQMNSLRAEDTAVYYCAKESYSTGWFDHWGQGTLVTVSSGGGGSGGGGSGGGGSNFMLTQDPAVSVALGQTVRITCQGDSLRKYYTSWYQQKPGQAPLLVMYAKNNRPSGIPDRFSGSSSGNTASLTITGAQAEDEADYYCDSRDSSGDHWVFGGGTKLTVLGAAAEQKLISEEDLNGAA
3 | no binding | F9T scFv (scFv, Expressed from pIT2 with a hexahistidine tag and a c-myc tag; the format is named under assay; also called F9T nanobody; F9 (clone before frame-shift repair)) scFv: QVQLQESGGGVVQPGRSLRLSCAASGFTFSTSGMHWVRQAPGKGLEWVAFILHDGSDKYYADSVKGRFTISRDNSKNTLYLQMNSLRAEDTAIYYCAKSQRELLGAEYLQNWGQGTLVTVSSGGGGSGGGGSGGGGSQSALTQPASVSGSPGQSITISCTGTSSDVGGYKYVSWYQQHPGKAPKVMIYDVSNRPSGVSNRFSGSKSGNTASLTISGLQAEDEADYYCSSYTSSSTLVFGGGTKVTVLGAAAHHHHHHGAAEQKLISEED
